Test results as given in IntAct's records for PubMed 19740107.

B1: Amphiregulin (Homo sapiens), P15514 (parent)
chain: MRAPLLPPAPVVLSLLILGSGHYAAGLDLNDTYSGKREPFSGDHSADGFEVTSRSEMSSGSEISPVSEMPSSSEPSSGADYDYSEEYDNEPQIPGYIVDDSVRVEQVVKPPQNKTESENTSDKPKRKKKGGKNGKNRRNRKKKNPCNAEFQNFCIHGECKYIEHLEAVTCKCQQEYFGERCGEKSMKTHSMIDSSLSKIALAAIAAFMSAVILTAVAVITVQLRRQYVRKYEGEAEERKKLRQENGNVHAIA

Variants of: B1
Settings: with S100A4, P26447
Chain of S100A4, P26447 (P26447 whole entry, looked up): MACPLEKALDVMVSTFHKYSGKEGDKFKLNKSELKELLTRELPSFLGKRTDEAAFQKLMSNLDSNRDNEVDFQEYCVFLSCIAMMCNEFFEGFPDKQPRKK

| effect of a mutation on the interaction | Variant |
| --- | --- |
| decreasing interaction | MRAPLLPPAPVVLSLLILGSGHYAAGLDLNDTYSGKREPFSGDHSADGFEVTSRSEMSSGSEISPVSEMPSSSEPSSGADYDYSEEYDNEPQIPGYIVDDSVRVEQVVKPPQNKTESENTSDKPKRKKKGGKNGKNRRNRKKKNPCNAEFQNFCIHGECKYIEHLEAVTCACQQEYFGERCGEKSMKTHSMIDSSLSKIALAAIAAFMSAVILTAVAVITVQLRRQYVRKYEGEAEERKKLRQENGNVHAIA [K171A] |
| decreasing interaction | MRAPLLPPAPVVLSLLILGSGHYAAGLDLNDTYSGKREPFSGDHSADGFEVTSRSEMSSGSEISPVSEMPSSSEPSSGADYDYSEEYDNEPQIPGYIVDDSVRVEQVVKPPQNKTESENTSDKPKRKKKGGKNGKNRRNRKKKNPCNAEFQNFCIHGECKYIEHLEAVTAKCQQEYFGERCGEKSMKTHSMIDSSLSKIALAAIAAFMSAVILTAVAVITVQLRRQYVRKYEGEAEERKKLRQENGNVHAIA [C170A] |
| decreasing interaction | MRAPLLPPAPVVLSLLILGSGHYAAGLDLNDTYSGKREPFSGDHSADGFEVTSRSEMSSGSEISPVSEMPSSSEPSSGADYDYSEEYDNEPQIPGYIVDDSVRVEQVVKPPQNKTESENTSDKPKRKKKGGKNGKNRRNRKKKNPCNAEFQNFCIHGECKYIEHLEAVTCKLQQEYFGERCGEKSMKTHSMIDSSLSKIALAAIAAFMSAVILTAVAVITVQLRRQYVRKYEGEAEERKKLRQENGNVHAIA [C172L] |

Variants of: B1
Settings: with S100A4, P26447
Remark: another data set of the same source

| effect of a mutation on the interaction | Variant |
| --- | --- |
| decreasing interaction | MRAPLLPPAPVVLSLLILGSGHYAAGLDLNDTYSGKREPFSGDHSADGFEVTSRSEMSSGSEISPVSEMPSSSEPSSGADYDYSEEYDNEPQIPGYIVDDSVRVEQVVKPPQNKTESENTSDKPKRKKKGGKNGKNRRNRKKKNPCNAEFQNLCIHGECKYIEHLEAVTCKCQQEYFGERCGEKSMKTHSMIDSSLSKIALAAIAAFMSAVILTAVAVITVQLRRQYVRKYEGEAEERKKLRQENGNVHAIA [F153L] |
| decreasing interaction | MRAPLLPPAPVVLSLLILGSGHYAAGLDLNDTYSGKREPFSGDHSADGFEVTSRSEMSSGSEISPVSEMPSSSEPSSGADYDYSEEYDNEPQIPGYIVDDSVRVEQVVKPPQNKTESENTSDKPKRKKKGGKNGKNRRNRKKKNPCNAEFQNFAIHGECKYIEHLEAVTCKCQQEYFGERCGEKSMKTHSMIDSSLSKIALAAIAAFMSAVILTAVAVITVQLRRQYVRKYEGEAEERKKLRQENGNVHAIA [C154A] |
